Source: patent US20250270332A1

B1: CH3 (Dia-CH3-Dia) (bispecific antibody)
chain: MNLLLILTFVAAAVAEFEVQLVESGGGLVQPGGSLRLSCAASGFNIGSSSIHWVRQAPGKGLEWVASIYSAFASTSYADSVKGRFTISADTSKNTAYLQMNSLRAEDTAVYYCARYHFPFGFALDYWGQGTLVTVSSGGGGSDIQMTQSPSSLSASVGDRVTITCRASQSVSSAVAWYQQKPGKAPKLLIYSASSLYSGVPSRFSGSRSGTDFTLTISSLQPEDFATYYCQQGVYLFTFGQGTKVEIKDKTHTKVEPKTSDKTHTCPPCPGQPREPQVYTLPPSREEMTKNQVSLTCLVKGFYPSDIAVEWESNGQPENNYKTTPPVLDSDGSFFLYSKLTVDKSRWQQGNVFSCSVMHEALHNHYTQKSLSLSPGKGTTAASGSSGGSSSGAGRTEVQLVESGGGLVQPGGSLRLSCAASGFNISYSSIHWVRQAPGKGLEWVAYISSYYGYTYYADSVKGRFTISADTSKNTAYLQMNSLRAEDTAVYYCARAHYFPWAGAMDYWGQGTLVTVSSGGGGSDIQMTQSPSSLSASVGDRVTITCRASQSVSSAVAWYQQKPGKAPKLLIYSASSLYSGVPSRFSGSRSGTDFTLTISSLQPEDFATYYCQQYSWGPFTFGQGTKVEIK
B2: CT0003 (bispecific antibody)
chain 1: MNLLLILTFVAAAVAEFEVQLVESGGGLVQPGGSLRLSCAASGFNISSYYIHWVRQAPGKGLEWVASIYSSYGYTSYADSVKGRFTISADTSKNTAYLQMNSLRAEDTAVYYCARTVRGSKKPYFSGWAMDYWGQGTLVTVSSGGGGSDIQMTQSPSSLSASVGDRVTITCRASQSVSSAVAWYQQKPGKAPKLLIYSASSLYSGVPSRFSGSRSGTDFTLTISSLQPEDFATYYCQQYSWGPFTFGQGTKVEIKLEDKTHTKVEPKSSDKTHNCPPCPAPELLGGPSVFLFPPKPKDTLMISRTPEVTCVVVDVSHEDPEVKFNWYVDGVEVHNAKTKPREEQYNSTYRVVSVLTVLHQDWLNGKEYKCKVSNKALPAPIEKTISKAKGQPREPQVYTLPPIRELMTSNQVSLSCAVKGFYPSDIAVEWESNGQPENNYKTTPPVLDSDGSFFLVSKLTVDKSRWQQGNVFSCSVMHEALHNHYTQKSLSLSPGKSGSETPGTSESATPESGGGEVQLVESGGGLVQPGGSLRLSCAASGFNIHSSSIHWVRQAPGKGLEWVAATYSSFGSITYADSVKGRFTISADTSKNTAYLQMNSLRAEDTAVYYCARYHHPFGYALDYWGQGTLVTVSSGTTAASGSSGGSSSGADIQMTQSPSSLSASVGDRVTITCRASQSVSSAVAWYQQKPGKAPKLLIYSASSLYSGVPSRFSGSRSGTDFTLTISSLQPEDFATYYCQQGVYLFTFGQGTKVEIK
chain 2: MNLLLILTFVAAAVAEFEVQLVESGGGLVQPGGSLRLSCAASGFNISYSSIHWVRQAPGKGLEWVAYISSYYGYTYYADSVKGRFTISADTSKNTAYLQMNSLRAEDTAVYYCARAHYFPWAGAMDYWGQGTLVTVSSGGGGDIQMTQSPSSLSASVGDRVTITCRASQSVSSAVAWYQQKPGKAPKLLIYSASSLYSGVPSRFSGSRSGTDFTLTISSLQPEDFATYYCQQYYWPITFGQGTKVEIKLEDKTHTKVEPKTSDKTHTCPPCPAPELLGGPSVFLFPPKPKDTLMISRTPEVTCVVVDVSHEDPEVKFNWYVDGVEVHNAKTKPREEQYNSTYRVVSVLTVLHQDWLNGKEYKCKVSNKALPAPIEKTISKAKGQPREPMVFDLPPSREEMTKNQVSLWCMVKGFYPSDIAVEWESNGQPENNYKTTPPVLDSDGSFFLYSKLTVDKSRWQQGNVFSCSVMHEALHNHYTQKSLSLSPGKSGSETPGTSESATPESGGGEVQLVESGGGLVQPGGSLRLSCAASGFNIHSSSIHWVRQAPGKGLEWVAATYSSFGSITYADSVKGRFTISADTSKNTAYLQMNSLRAEDTAVYYCARYHHPFGYALDYWGQGTLVTVSSGTTAASGSSGGSSSGADIQMTQSPSSLSASVGDRVTITCRASQSVSSAVAWYQQKPGKAPKLLIYSASSLYSGVPSRFSGSRSGTDFTLTISSLQPEDFATYYCQQGVYLFTFGQGTKVEIK
B3: ANT-1 (bispecific antibody)
heavy 1: MNLLLILTFVAAAVAEFEVQLVESGGGLVQPGGSLRLSCAASGFNISSYYIHWVRQAPGKGLEWVASIYSSYGYTSYADSVKGRFTISADTSKNTAYLQMNSLRAEDTAVYYCARTVRGSKKPYFSGWAMDYWGQGTLVTVSSGGGGSDIQMTQSPSSLSASVGDRVTITCRASQSVSSAVAWYQQKPGKAPKLLIYSASSLYSGVPSRFSGSRSGTDFTLTISSLQPEDFATYYCQQYYFLITFGQGTKVEIKLEDKTHTKVEPKSSDKTHNCPPCPAPELLGGPSVFLFPPKPKDTLMISRTPEVTCVVVDVSHEDPEVKFNWYVDGVEVHNAKTKPREEQYNSTYRVVSVLTVLHQDWLNGKEYKCKVSNKALPAPIEKTISKAKGQPREPQVYTLPPIRELMTSNQVSLSCAVKGFYPSDIAVEWESNGQPENNYKTTPPVLDSDGSFFLVSKLTVDKSRWQQGNVFSCSVMHEALHNHYTQKSLSLSPGKSGSETPGTSESATPESGGGEVQLVESGGGLVQPGGSLRLSCAASGFNIHSSSIHWVRQAPGKGLEWVAATYSSFGSITYADSVKGRFTISADTSKNTAYLQMNSLRAEDTAVYYCARYHHPFGYALDYWGQGTLVTVSSASTKGPSVFPLAPSSKSTSGGTAALGCLVKDYFPEPVTVSWNSGALTSGVHTFPAVLQSSGLYSLSSVVTVPSSSLGTQTYICNVNHKPSNTKVDKKVEPKSCDKTHT
heavy 2: MNLLLILTFVAAAVAEFEVQLVESGGGLVQPGGSLRLSCAASGFNISYSSIHWVRQAPGKGLEWVASISPYYGYTYYADSVKGRFTISADTSKNTAYLQMNSLRAEDTAVYYCARSSYFPWFSAMDYWGQGTLVTVSSGGGGSDIQMTQSPSSLSASVGDRVTITCRASQSVSSAVAWYQQKPGKAPKLLIYSASSLYSGVPSRFSGSRSGTDFTLTISSLQPEDFATYYCQQYYWPITFGQGTKVEIKLEDKTHTKVEPKTSDKTHTCPPCPAPELLGGPSVFLFPPKPKDTLMISRTPEVTCVVVDVSHEDPEVKFNWYVDGVEVHNAKTKPREEQYNSTYRVVSVLTVLHQDWLNGKEYKCKVSNKALPAPIEKTISKAKGQPREPMVFDLPPSREEMTKNQVSLWCMVKGFYPSDIAVEWESNGQPENNYKTTPPVLDSDGSFFLYSKLTVDKSRWQQGNVFSCSVMHEALHNHYTQKSLSLSPGKSGSETPGTSESATPESGGGEVQLVESGGGLVQPGGSLRLSCAASGFNIHSSSIHWVRQAPGKGLEWVAATYSSFGSITYADSVKGRFTISADTSKNTAYLQMNSLRAEDTAVYYCARYHHPFGYALDYWGQGTLVTVSSASTKGPSVFPLAPSSKSTSGGTAALGCLVKDYFPEPVTVSWNSGALTSGVHTFPAVLQSSGLYSLSSVVTVPSSSLGTQTYICNVNHKPSNTKVDKKVEPKSCDKTHT
light: DIQMTQSPSSLSASVGDRVTITCRASQSVSSAVAWYQQKPGKAPKLLIYSASSLYSGVPSRFSGSRSGTDFTLTISSLQPEDFATYYCQQGVYLFTFGQGTKVEIKRTVAAPSVFIFPPSDEQLKSGTASVVCLLNNFYPREAKVQWKVDNALQSGNSQESVTEQDSKDSTYSLSSTLTLSKADYEKHKVYACEVTHQGLSSPVTKSFNRGEC
B4: CM0011 (Dia-Fc-Dia) (bispecific antibody)
chain 1: MNLLLILTFVAAAVAEFEVQLVESGGGLVQPGGSLRLSCAASGFNIGSSSIHWVRQAPGKGLEWVASIYSAFASTSYADSVKGRFTISADTSKNTAYLQMNSLRAEDTAVYYCARYHFPFGFALDYWGQGTLVTVSSGGGGSDIQMTQSPSSLSASVGDRVTITCRASQSVSSAVAWYQQKPGKAPKLLIYSASSLYSGVPSRFSGSRSGTDFTLTISSLQPEDFATYYCQQGVYLFTFGQGTKVEIKLEDKTHTKVEPKSSDKTHNCPPCPAPELLGGPSVFLFPPKPKDTLMISRTPEVTCVVVDVSHEDPEVKFNWYVDGVEVHNAKTKPREEQYNSTYRVVSVLTVLHQDWLNGKEYKCKVSNKALPAPIEKTISKAKGQPREPQVYTLPPIRELMTSNQVSLSCAVKGFYPSDIAVEWESNGQPENNYKTTPPVLDSDGSFFLVSKLTVDKSRWQQGNVFSCSVMHEALHNHYTQKSLSLSPGKSGSETPGTSESATPESGGGEVQLVESGGGLVQPGGSLRLSCAASGFNISSYYIHWVRQAPGKGLEWVASIYSSYGYTSYADSVKGRFTISADTSKNTAYLQMNSLRAEDTAVYYCARTVRGSKKPYFSGWAMDYWGQGTLVTVSSGGGGSDIQMTQSPSSLSASVGDRVTITCRASQSVSSAVAWYQQKPGKAPKLLIYSASSLYSGVPSRFSGSRSGTDFTLTISSLQPEDFATYYCQQYSWGPFTFGQGTKVEIK
chain 2: MNLLLILTFVAAAVAEFEVQLVESGGGLVQPGGSLRLSCAASGFNIGSSSIHWVRQAPGKGLEWVASIYSAFASTSYADSVKGRFTISADTSKNTAYLQMNSLRAEDTAVYYCARYHFPFGFALDYWGQGTLVTVSSGGGGSDIQMTQSPSSLSASVGDRVTITCRASQSVSSAVAWYQQKPGKAPKLLIYSASSLYSGVPSRFSGSRSGTDFTLTISSLQPEDFATYYCQQGVYLFTFGQGTKVEIKLEDKTHTKVEPKTSDKTHTCPPCPAPELLGGPSVFLFPPKPKDTLMISRTPEVTCVVVDVSHEDPEVKFNWYVDGVEVHNAKTKPREEQYNSTYRVVSVLTVLHQDWLNGKEYKCKVSNKALPAPIEKTISKAKGQPREPMVFDLPPSREEMTKNQVSLWCMVKGFYPSDIAVEWESNGQPENNYKTTPPVLDSDGSFFLYSKLTVDKSRWQQGNVFSCSVMHEALHNHYTQKSLSLSPGKSGSETPGTSESATPESGGGEVQLVESGGGLVQPGGSLRLSCAASGFNISYSSIHWVRQAPGKGLEWVAYISSYYGYTYYADSVKGRFTISADTSKNTAYLQMNSLRAEDTAVYYCARAHYFPWAGAMDYWGQGTLVTVSSGGGGSDIQMTQSPSSLSASVGDRVTITCRASQSVSSAVAWYQQKPGKAPKLLIYSASSLYSGVPSRFSGSRSGTDFTLTISSLQPEDFATYYCQQYYWPITFGQGTKVEIK

Target: FZD1/2/4/5/7/8
Assay: cell-based or functional assay

Row | Maximal Signal (% Wnt3a maxima) (% Wnt3a maxima) | % Wnt Maxima Avg | EC50 (nM), TOPFLASH assay | Topflash EC50 (nM) Avg | Binder
1 | 22 |  |  |  | B1
2 | 42 | 42% | 0.4 nM | 0.4 nM | B2
3 | 50 | 49% | 0.7 nM | 0.7 nM | B3
4 | 63 | 63% | 0.3 nM | 0.3 nM | B4
